Reference: paper PMC4791640

Target: T1, TON_1525 wild-type (putative transcriptional regulator) (Thermococcus onnurineus NA1) (UniProt B6YTS4)
T1 sequence: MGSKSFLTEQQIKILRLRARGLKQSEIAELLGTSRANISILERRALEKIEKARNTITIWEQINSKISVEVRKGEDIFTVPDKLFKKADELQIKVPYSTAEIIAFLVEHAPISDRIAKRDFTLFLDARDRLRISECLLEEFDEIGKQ
Assay: EMSA
Settings: EMSA: 100 nM DNA, 20 mM Tris-HCl, 200 mM KCl, 1 mM EDTA, 5% glycerol, pH 7.5, 80 C for 10 min; 5% native PAGE

## GAGAGTTTTACTGTCTCTAAATGAAAGGTTCTAATACGGTGGATCGAATAATTTCTTGCGTTTTTATCCGGATCGCCGAACACGATTCCATCTTAAAATCTTTTTGTTTACATTATACGAGGTGATCAACAATGCCAGCTTTTTCCGGTT (double strand) [CODH promoter 150-bp probe]
  binding: binds
